{"source": "paper PMC10589721", "about": "(Proceedings of the National Academy of Sciences of the …, 2023)", "key": {"[1]": {"molecular_target": "T1, full-length human OGT (Homo sapiens, UniProt O15294)", "T1 sequence (O15294 1-1046)": "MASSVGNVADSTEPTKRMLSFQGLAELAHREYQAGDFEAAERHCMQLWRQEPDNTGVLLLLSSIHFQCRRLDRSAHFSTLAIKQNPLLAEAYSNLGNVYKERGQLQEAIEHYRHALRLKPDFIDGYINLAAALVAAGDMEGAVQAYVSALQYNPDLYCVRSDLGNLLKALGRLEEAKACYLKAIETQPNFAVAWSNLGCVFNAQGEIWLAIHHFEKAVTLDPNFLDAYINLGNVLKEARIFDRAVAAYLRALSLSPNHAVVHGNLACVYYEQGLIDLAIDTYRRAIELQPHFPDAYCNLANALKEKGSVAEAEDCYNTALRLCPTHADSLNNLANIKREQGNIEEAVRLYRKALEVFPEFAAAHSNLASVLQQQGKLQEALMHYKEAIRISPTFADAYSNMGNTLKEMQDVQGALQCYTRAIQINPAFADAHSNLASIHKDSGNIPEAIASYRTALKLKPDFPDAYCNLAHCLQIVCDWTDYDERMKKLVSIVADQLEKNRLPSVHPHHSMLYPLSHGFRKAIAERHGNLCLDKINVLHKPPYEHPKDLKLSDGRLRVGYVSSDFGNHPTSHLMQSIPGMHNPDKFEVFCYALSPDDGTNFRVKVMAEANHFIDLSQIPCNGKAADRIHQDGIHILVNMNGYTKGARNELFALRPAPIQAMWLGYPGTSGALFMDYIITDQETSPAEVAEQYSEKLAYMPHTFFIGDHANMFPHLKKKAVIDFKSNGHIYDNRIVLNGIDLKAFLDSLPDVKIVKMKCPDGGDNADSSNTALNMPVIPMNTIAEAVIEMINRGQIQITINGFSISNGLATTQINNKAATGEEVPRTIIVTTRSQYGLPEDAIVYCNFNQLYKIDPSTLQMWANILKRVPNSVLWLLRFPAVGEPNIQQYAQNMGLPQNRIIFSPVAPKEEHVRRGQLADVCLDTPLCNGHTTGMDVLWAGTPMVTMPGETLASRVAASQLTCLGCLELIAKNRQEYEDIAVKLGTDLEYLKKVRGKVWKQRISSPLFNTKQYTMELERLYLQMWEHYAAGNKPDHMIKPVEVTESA", "test": "OGT inhibition assay", "type": "biochemical"}, "[2]": {"molecular_target": "T2, OGT4.5 (crystallizable construct of O-GlcNAc transferase: catalytic region appended to 4.5 TPRs) (human, UniProt O15294 323-1041)", "T2 sequence": "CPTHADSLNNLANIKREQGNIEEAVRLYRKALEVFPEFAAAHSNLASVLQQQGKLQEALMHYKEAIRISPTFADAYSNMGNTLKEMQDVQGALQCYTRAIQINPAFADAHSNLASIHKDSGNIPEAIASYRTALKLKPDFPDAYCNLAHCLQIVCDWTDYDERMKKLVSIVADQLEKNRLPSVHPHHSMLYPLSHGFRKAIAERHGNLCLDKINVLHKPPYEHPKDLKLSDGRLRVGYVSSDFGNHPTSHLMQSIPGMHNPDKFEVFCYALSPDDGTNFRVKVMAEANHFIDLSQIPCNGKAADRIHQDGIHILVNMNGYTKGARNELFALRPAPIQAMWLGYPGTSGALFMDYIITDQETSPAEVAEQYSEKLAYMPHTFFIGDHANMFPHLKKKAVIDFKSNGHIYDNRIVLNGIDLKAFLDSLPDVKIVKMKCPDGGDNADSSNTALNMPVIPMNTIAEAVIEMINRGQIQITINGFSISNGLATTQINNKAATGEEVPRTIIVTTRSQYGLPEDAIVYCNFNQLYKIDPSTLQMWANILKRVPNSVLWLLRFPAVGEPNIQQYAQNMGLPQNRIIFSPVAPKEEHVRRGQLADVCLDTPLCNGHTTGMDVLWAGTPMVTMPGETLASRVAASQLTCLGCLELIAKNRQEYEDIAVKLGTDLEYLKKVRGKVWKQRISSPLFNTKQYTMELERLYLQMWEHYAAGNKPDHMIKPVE", "test": "BLI"}, "[3]": {"molecular_target": "T3, O-GlcNAc transferase (OGT), as used in the fluorescence activity assay (human, UniProt O15294 1-1046)", "T3 sequence (looked up)": "T1 sequence (O15294 1-1046)", "test": "enzyme inhibition kinetics"}, "[4]": {"molecular_target": "T3, O-GlcNAc transferase (OGT), as used in …", "test": "enzyme inhibition kinetics", "remark": "listed apart in the source"}, "[5]": {"molecular_target": "T3, O-GlcNAc transferase (OGT), as used in …", "test": "enzyme inhibition kinetics", "remark": "listed apart in the source"}, "[6]": {"molecular_target": "T2, OGT4.5 (crystallizable construct of …)", "test": "crystal structure"}}, "note": "Like-named read-outs stand apart in the source and are kept apart here. No end group written: not given here. *: point of attachment. Biotin = O=C1N[C@H]2[C@H](CS[C@H]2CCCCC(=O)*)N1; Ahx = NCCCCCC(=O)O", "data": [{"molecule": "DDSDLYSPRYSFSED [repeat 2 of SORB1]", "values": [{"measurement": "inhibition of OGT (in words)", "setting": "[1]", "result": "none of these four peptides inhibited OGT"}]}, {"molecule": "RGLGEFTPLYPMLFG [SCLY]", "values": [{"measurement": "inhibition of OGT (in words)", "setting": "[1]", "result": "none of these four peptides inhibited OGT"}]}, {"molecule": "PTSKAYSPRYSISDR [SOS1]", "values": [{"measurement": "inhibition of OGT (in words)", "setting": "[1]", "result": "none of these four peptides inhibited OGT"}]}, {"molecule": "PEENPYFPTYKFPEL [repeat 1 of SORB1]", "values": [{"measurement": "inhibition of OGT (in words)", "setting": "[1]", "result": "none of these four peptides inhibited OGT"}]}, {"molecule": "{Biotin-Ahx}-GDFPVMFMPKYSIIF", "note": "[biotinylated peptide P11 (Biotin-Ahx-GDFPVMFMPKYSIIF)]", "values": [{"measurement": "Kd", "setting": "[2]", "result": "0.47 ± 0.16", "unit": "µM"}]}, {"molecule": "GDFPVMFMPKYSIIF", "note": "[peptide P11]", "values": [{"measurement": "Ki", "setting": "[3]", "result": "4000 ± 900", "unit": "µM"}, {"measurement": "Ki", "setting": "[4]", "result": "2.7 ± 0.3", "unit": "µM"}, {"measurement": "Ki", "setting": "[5]", "result": "3.8 ± 0.4", "unit": "µM"}]}, {"molecule": "FMPKYSI", "note": "[truncated P11 peptide (tP11)]", "values": [{"measurement": "binding result", "setting": "[6]", "result": "binds"}]}]}
